Data: publication PMC8626477

Experiments:
[1] = biological target: E2 of the Chaetomium thermophilum pyruvate dehydrogenase complex (PDHc) (Chaetomium thermophilum); assay: cryo-EM structure; native C. thermophilum cell extract, SEC fraction 6, vitrified at 0.3 mg/mL total protein; 10249 particles; reconstructions with icosahedral (3.85 Å), C2 (6.21 Å) and C1 (7.62 Å) symmetry
[2] = biological target: E3BP of the Chaetomium thermophilum pyruvate dehydrogenase complex (PDHc) (Chaetomium thermophilum); assay: as above

stoichiometry N [1]	stoichiometry N [2]	Substance
12	3	E3BP of the Chaetomium thermophilum pyruvate dehydrogenase complex (PDHc) (natural protein)
60		E2 of the Chaetomium thermophilum pyruvate dehydrogenase complex (PDHc) (enzyme)
